Reference: US20170281796A1, “c-Met Antibody Drug Conjugate” (Sorrento Therapeutics, Inc., priority 2014, published 2017)

Tested on: MDA-MB468
Assay: internalization of anti c-Met antibody in triple negative breast cancer cell line
Assay type: cell-based
Settings: 1 μg/ml antibody, 180 min at 37° C.; FIG. 8
Method: Internalization of anti c-Met antibody IgG1 H8-A2 (also called STI-0602 SEQ ID NO. 25/SEQ ID NO. 26) in MDA-MB468. MDA-MB468 were plated overnight and incubated with 1 μg/ml anti-C-Met H8A2 antibody for 180 min at 37° C. Cells were stained with anti-AF488.

B1: H8-A2: anti c-Met antibody IgG1, heavy chain SEQ ID NO. 25 / light chain SEQ ID NO. 26 (antibody, V domains shown)
VH: EVQLVQSGAEVKKPGASVKVSCKASGYTFYSEYMHWVRQAPGQGLEWMGWINPNSGNTGVAPKFQGRVTMTRNTSISTAYMELSSLRSEDTAVYYCARRGTTVSFDTWGQGTLVTVSS
VL: QLVLTQSPSVSVAPGQRVTISCSGSNSNIGNNYVSWYHHLPGTAPKLLIYDNNKRPSGIPDRFSGSKSGTSATLGITGLQPGDEAHYYCGTWDSTLSAWAFGGGTKLTVL
modifications: Homo sapians
internalization: internalized
